Reference: patent US20150344570A1 (published 2015)

T1: FcgRIIa H (human, UniProt P12318 34-217)
T1 construct: extracellular domain; also called FcγRIIa H; FcγRIIa type H
T1 sequence (looked up): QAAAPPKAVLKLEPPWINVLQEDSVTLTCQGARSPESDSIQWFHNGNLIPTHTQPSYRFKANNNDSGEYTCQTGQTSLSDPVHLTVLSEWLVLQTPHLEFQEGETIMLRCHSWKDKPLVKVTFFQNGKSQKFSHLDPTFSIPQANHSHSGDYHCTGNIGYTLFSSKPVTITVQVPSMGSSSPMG

T2: FcgRIIa R (human, UniProt P12318 34-217)
T2 construct: extracellular domain; also called FcγRIIa R; FcγRIIa type R
T2 sequence (looked up): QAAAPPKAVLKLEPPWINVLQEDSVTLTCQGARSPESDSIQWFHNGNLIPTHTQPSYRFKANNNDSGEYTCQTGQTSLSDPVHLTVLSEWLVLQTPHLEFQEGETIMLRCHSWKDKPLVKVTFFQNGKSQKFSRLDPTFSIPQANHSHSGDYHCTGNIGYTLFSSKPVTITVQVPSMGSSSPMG

T3: FcgRIIb (human, UniProt P31994 43-217)
T3 construct: extracellular domain; also called FcγRIIb; CD32B
T3 sequence (looked up): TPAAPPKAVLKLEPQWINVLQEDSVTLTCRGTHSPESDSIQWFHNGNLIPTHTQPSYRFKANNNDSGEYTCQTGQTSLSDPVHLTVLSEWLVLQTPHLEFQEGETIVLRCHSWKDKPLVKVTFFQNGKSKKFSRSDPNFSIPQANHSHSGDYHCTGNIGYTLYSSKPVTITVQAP


How the values were obtained:
Assay in all cases: SPR (Biacore), antibody captured, FcgR as analyte
[1] = target: T4, FcgRIIIa F (human, UniProt P08637 17-208)
T4 construct: extracellular domain; polymorphic site made after J. Clin. Invest; also called FcγRIIIa F
Procedure: (§1) H240-Kn113 (SEQ ID NO: 92) resulting from introduction of Y234E and Y235N into H240-Kn072, H240-Kn115 (SEQ ID NO: 93) resulting from introduction of S239M into H240-Kn072, and H240-Kn125 (SEQ ID NO: 94) resulting from introduction of Y235Q and S239M into H240-Kn072 were prepared according to the method described in Reference Example 1. H240-Kn113/H240-Hl076/L73-k0, H240-Kn115/H240-Hl076/L73-k0, and H240-Kn125/H240-Hl076/L73-k0 were prepared by combining H240-Hl076 as an H chain, L73-k0 as the L chain, and H240-Kn113, H240-Kn115, and H240-Kn125 as the other H chain according to the method described in Reference Example 1.
(§2) Analysis of interaction between objective antibody and the FcγR was carried out using Biacore T100 (GE Healthcare), Biacore T200, Biacore A100, and Biacore 4000. HBS-EP+ (GE Healthcare) was used as the running buffer, and the measurement temperature was set to 25° C. Chips produced by immobilizing the antigen peptide by the amine coupling method to a Series S sensor Chip CM5 (GE Healthcare), chips produced by allowing preliminarily biotinylated antigen peptides to interact with and immobilize onto a Series S Sensor Chip SA (certified) (GE Healthcare), chips produced by immobilizing Protein L (ACTIGEN, BioVision) to Series S Sencor Chip CM5 (GE Healthcare), or chips produced by immobilizing Protein A/G (Thermo Scientific) to Series S Sencor Chip CM5 (GE Healthcare) were used. Antibodies of interest were captured onto these chips, and allowed to interact to each FcγR diluted with running buffer. To regenerate and repeatedly use the chip, the antibodies captured onto the chip were washed off by reacting 10 mM glycine-HCl, pH 1.5.

[2] = target: T1, FcgRIIa H
Procedure: as §1, §2

[3] = target: T2, FcgRIIa R
Procedure: as §1, §2

[4] = target: T5, FcgRIIIa V (human, UniProt P08637 17-208)
T5 construct: extracellular domain; polymorphic site made after J. Clin. Invest; also called FcγRIIIa V
Procedure: as §1, §2

[5] = target: T6, FcgRIa (human, UniProt P12314 16-292)
T6 construct: extracellular domain; also called FcγRIa; FcγRI
Procedure: as §1, §2

[6] = target: T3, FcgRIIb
Procedure: as §1, §2

T6 sequence (P12314 16-292): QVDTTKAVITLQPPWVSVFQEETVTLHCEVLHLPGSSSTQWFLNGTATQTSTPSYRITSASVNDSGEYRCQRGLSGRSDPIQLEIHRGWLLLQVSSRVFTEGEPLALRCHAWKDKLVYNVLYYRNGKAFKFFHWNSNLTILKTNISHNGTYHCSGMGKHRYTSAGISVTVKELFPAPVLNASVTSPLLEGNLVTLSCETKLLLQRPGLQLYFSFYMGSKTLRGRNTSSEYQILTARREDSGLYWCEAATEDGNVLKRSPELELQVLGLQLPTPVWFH
T4 sequence (P08637 17-208): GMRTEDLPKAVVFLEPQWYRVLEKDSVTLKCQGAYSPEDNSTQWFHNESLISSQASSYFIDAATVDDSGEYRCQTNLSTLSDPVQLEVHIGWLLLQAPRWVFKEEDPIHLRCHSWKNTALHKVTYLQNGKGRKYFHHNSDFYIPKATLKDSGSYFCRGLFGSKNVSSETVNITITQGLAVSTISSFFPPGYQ
T5 sequence (P08637 17-208 F176V limits assumed): as the sequence (P08637 17-208) above, with F160V counted along it

| Kd [1] | Kd [2] | Kd [3] | Kd [4] | Kd [5] | Kd [6] | Binder |
| --- | --- | --- | --- | --- | --- | --- |
| 1.7 nM | 350 nM | 600 nM | 0.62 nM | 0.21 nM | 5000 nM | H240-Kn113/H240-Hl076/L73-k0 (antibody, human IgG1, kappa, H240-Kn113: Y234E and Y235N introduced into H240-Kn072) heavy 1: QDQLVQSGAEVKKPGASVKVSCKASGFNIKDTYIQWVRQAPGQGLEWMGRIDPLRKQTKYREKFEGRVTITADTSTNTAYMELSSLRSEDTAVYYCVRSGREFDYWGQGTLVTVSSASTKGPSVFPLAPSSKSTSGGTAALGCLVKDYFPEPVTVSWNSGALTSGVHTFPAVLQSSGLYSLSSVVTVPSSSLGTQTYICNVNHKPSNTKVDKKVEPKSCDKTHTCPPCPAPEENWGPSVFLFPPKPKDTLMISRTPEVTCVVVDVSDEEPEVKFNWYVDGVEVHNAKTKPREEQYNATYRVVSVLTVLHQDWLNGKEYKCKVSNKALPAPIEKTISKAKGQPREPQVCTLPPSRDELTKNQVSLWCLVKGFYPSDIAVEWESNGQPENNYKTTPPVLDSDGSFFLYSKLTVDKSRWQQGNVFSCSVMHEALHNHYTQKSLSLSP heavy 2: QDQLVQSGAEVKKPGASVKVSCKASGFNIKDTYIQWVRQAPGQGLEWMGRIDPLRKQTKYREKFEGRVTITADTSTNTAYMELSSLRSEDTAVYYCVRSGREFDYWGQGTLVTVSSASTKGPSVFPLAPSSKSTSGGTAALGCLVKDYFPEPVTVSWNSGALTSGVHTFPAVLQSSGLYSLSSVVTVPSSSLGTQTYICNVNHKPSNTKVDKKVEPKSCDKTHTCPPCPAPELLGGPSVFLFPPKPKDTLMISRTPEVTCVVVDVSHEEPEVKFNWYVDGVEVHNAKTKPREEQYNSTYRVVSVLTVLHQDWLNGKEYKCKVSNDALPMPIEETISKAKGQPREPQVYTLPPSRCELTKNQVSLSCAVKGFYPSDIAVEWESNGQPENNYKTTPPVLDSDGSFFLVSKLTVDKSRWQQGNVFSCSVMHEALHNHYTQKSLSLSP light: DIQMTQSPSSLSASVGDRVTITCRASQDIHKYIAWYQQKPGQAPRLLIQYTSTLQPGVPSRFSGSGSGTDYTFTISSLQPEDIATYYCLQYEQLRTFGGGTKVEIKRTVAAPSVFIFPPSDEQLKSGTASVVCLLNNFYPREAKVQWKVDNALQSGNSQESVTEQDSKDSTYSLSSTLTLSKADYEKHKVYACEVTHQGLSSPVTKSFNRGEC |
| 1.4 nM | 62 nM | 130 nM | 0.43 nM | 0.27 nM | 1300 nM | H240-Kn115/H240-Hl076/L73-k0 (antibody, human IgG1, kappa, H240-Kn115: S239M introduced into H240-Kn072) heavy 1: QDQLVQSGAEVKKPGASVKVSCKASGFNIKDTYIQWVRQAPGQGLEWMGRIDPLRKQTKYREKFEGRVTITADTSTNTAYMELSSLRSEDTAVYYCVRSGREFDYWGQGTLVTVSSASTKGPSVFPLAPSSKSTSGGTAALGCLVKDYFPEPVTVSWNSGALTSGVHTFPAVLQSSGLYSLSSVVTVPSSSLGTQTYICNVNHKPSNTKVDKKVEPKSCDKTHTCPPCPAPEYYWGPMVFLFPPKPKDTLMISRTPEVTCVVVDVSDEEPEVKFNWYVDGVEVHNAKTKPREEQYNATYRVVSVLTVLHQDWLNGKEYKCKVSNKALPAPIEKTISKAKGQPREPQVCTLPPSRDELTKNQVSLWCLVKGFYPSDIAVEWESNGQPENNYKTTPPVLDSDGSFFLYSKLTVDKSRWQQGNVFSCSVMHEALHNHYTQKSLSLSP heavy 2: QDQLVQSGAEVKKPGASVKVSCKASGFNIKDTYIQWVRQAPGQGLEWMGRIDPLRKQTKYREKFEGRVTITADTSTNTAYMELSSLRSEDTAVYYCVRSGREFDYWGQGTLVTVSSASTKGPSVFPLAPSSKSTSGGTAALGCLVKDYFPEPVTVSWNSGALTSGVHTFPAVLQSSGLYSLSSVVTVPSSSLGTQTYICNVNHKPSNTKVDKKVEPKSCDKTHTCPPCPAPELLGGPSVFLFPPKPKDTLMISRTPEVTCVVVDVSHEEPEVKFNWYVDGVEVHNAKTKPREEQYNSTYRVVSVLTVLHQDWLNGKEYKCKVSNDALPMPIEETISKAKGQPREPQVYTLPPSRCELTKNQVSLSCAVKGFYPSDIAVEWESNGQPENNYKTTPPVLDSDGSFFLVSKLTVDKSRWQQGNVFSCSVMHEALHNHYTQKSLSLSP light: DIQMTQSPSSLSASVGDRVTITCRASQDIHKYIAWYQQKPGQAPRLLIQYTSTLQPGVPSRFSGSGSGTDYTFTISSLQPEDIATYYCLQYEQLRTFGGGTKVEIKRTVAAPSVFIFPPSDEQLKSGTASVVCLLNNFYPREAKVQWKVDNALQSGNSQESVTEQDSKDSTYSLSSTLTLSKADYEKHKVYACEVTHQGLSSPVTKSFNRGEC |
| 1.2 nM | 190 nM | 380 nM | 0.37 nM | 0.24 nM | 4200 nM | H240-Kn125/H240-Hl076/L73-k0 (antibody, human IgG1, kappa, H240-Kn125: Y235Q and S239M introduced into H240-Kn072) heavy 1: QDQLVQSGAEVKKPGASVKVSCKASGFNIKDTYIQWVRQAPGQGLEWMGRIDPLRKQTKYREKFEGRVTITADTSTNTAYMELSSLRSEDTAVYYCVRSGREFDYWGQGTLVTVSSASTKGPSVFPLAPSSKSTSGGTAALGCLVKDYFPEPVTVSWNSGALTSGVHTFPAVLQSSGLYSLSSVVTVPSSSLGTQTYICNVNHKPSNTKVDKKVEPKSCDKTHTCPPCPAPEYQWGPMVFLFPPKPKDTLMISRTPEVTCVVVDVSDEEPEVKFNWYVDGVEVHNAKTKPREEQYNATYRVVSVLTVLHQDWLNGKEYKCKVSNKALPAPIEKTISKAKGQPREPQVCTLPPSRDELTKNQVSLWCLVKGFYPSDIAVEWESNGQPENNYKTTPPVLDSDGSFFLYSKLTVDKSRWQQGNVFSCSVMHEALHNHYTQKSLSLSP heavy 2: QDQLVQSGAEVKKPGASVKVSCKASGFNIKDTYIQWVRQAPGQGLEWMGRIDPLRKQTKYREKFEGRVTITADTSTNTAYMELSSLRSEDTAVYYCVRSGREFDYWGQGTLVTVSSASTKGPSVFPLAPSSKSTSGGTAALGCLVKDYFPEPVTVSWNSGALTSGVHTFPAVLQSSGLYSLSSVVTVPSSSLGTQTYICNVNHKPSNTKVDKKVEPKSCDKTHTCPPCPAPELLGGPSVFLFPPKPKDTLMISRTPEVTCVVVDVSHEEPEVKFNWYVDGVEVHNAKTKPREEQYNSTYRVVSVLTVLHQDWLNGKEYKCKVSNDALPMPIEETISKAKGQPREPQVYTLPPSRCELTKNQVSLSCAVKGFYPSDIAVEWESNGQPENNYKTTPPVLDSDGSFFLVSKLTVDKSRWQQGNVFSCSVMHEALHNHYTQKSLSLSP light: DIQMTQSPSSLSASVGDRVTITCRASQDIHKYIAWYQQKPGQAPRLLIQYTSTLQPGVPSRFSGSGSGTDYTFTISSLQPEDIATYYCLQYEQLRTFGGGTKVEIKRTVAAPSVFIFPPSDEQLKSGTASVVCLLNNFYPREAKVQWKVDNALQSGNSQESVTEQDSKDSTYSLSSTLTLSKADYEKHKVYACEVTHQGLSSPVTKSFNRGEC |
